The results in this text go back to patent publication US20110091994A1, “Methods for Screening Compounds for Treating and/or Preventing an Hepatitis C Virus Infection” (priority 2008, published 2011).

Like-named read-outs stand apart in the source and are kept apart here.

Assay [1] has as its target T1, HCV ORFs (Gal4-DB fusions) (Hepatitis C virus genotype 1b, UniProt Q9WMX2).
T1 construct: expressed in transfected cells; host or cells: Saccharomyces cerevisiae MAV203 (IMAP1) / AH109 (IMAP2)
It is filed as binding, HCV genotype 1b, isolate con1. As to conditions: human protein as prey.

The test system of assay [2] is HCV ORFs (Gal4-DB fusions). The format is binding, HCV genotype 1b, isolate con1. As to conditions: human protein listed by gene symbol; the value names the HCV protein it interacts with.
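Note: yeast two-hybrid screens using HCV genotype 1b proteins fused to Gal4-DB as baits against prey cDNA libraries from human spleen and foetal brain, IMAP1 via transformation and IMAP2 via mating.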

B1: PARVG (protein, UniProt Q9HBI0 1-331, looked up)
Gamma-parvin: MEPEFLYDLLQLPKGVEPPAEEELSKGGKKKYLPPTSRKDPKFEELQKVLMEWINATLLPEHIVVRSLEEDMFDGLILHHLFQRLAALKLEAEDIALTATSQKHKLTVVLEAVNRSLQLEEWQAKWSVESIFNKDLLSTLHLLVALAKRFQPDLSLPTNVQVEVITIESTKSGLKSEKLVEQLTEYSTDKDEPPKDVFDELFKLAPEKVNAVKEAIVNFVNQKLDRLGLSVQNLDTQFADGVILLLLIGQLEGFFLHLKEFYLTPNSPAEMLHNVTLALELLKDEGLLSCPVSPEDIVNKDAKSTLRVLYGLFCKHTQKAHRDRTPHGAPN
Turning to B1, the “IMAP Y2H IMAP2 (number of IST)” value in assay [1] (HCV protein NS5A as bait) came out at 1. Besides, the “Interaction with viral protein” value in assay [2] is on record as “NS5A”.

B2: CCDC100 (protein, UniProt Q8N960 1-986, looked up)
Centrosomal protein of 120 kDa: MVSKSDQLLIVVSILEGRHFPKRPKHMLVVEAKFDGEQLATDPVDHTDQPEFATELAWEIDRKALHQHRLQRTPIKLQCFALDPVTSAKETIGYIVLDLRTAQETKQAPKWYQLLSNKYTKFKSEIQISIALETDTKPPVDSFKAKGAPPRDGKVPAILAGLDPRDIVAVLNEEGGYHQIGPAEYCTDSFIMSVTIAFATQLEQLIPCTMKLPERQPEFFFYYSLLGNDVTNEPFNDLINPNFEPERASVRIRSSVEILRVYLALQSKLQIHLCCGDQSLGSTEIPLTGLLKKGSTEINQHPVTVEGAFTLDPPNRAKQKLAPIPVELAPTVGVSVALQREGIDSQSLIELKTQNEHEPEHSKKKVLTPIKEKTLTGPKSPTVSPVPSHNQSPPTKDDATESEVESLQYDKDTKPNPKASSSVPASLAQLVTTSNASEVASGQKIAVPATSHHFCFSIDLRSIHALEIGFPINCILRYSYPFFGSAAPIMTNPPVEVRKNMEVFLPQSYCAFDFATMPHQLQDTFLRIPLLVELWHKDKMSKDLLLGIARIQLSNILSSEKTRFLGSNGEQCWRQTYSESVPVIAAQGSNNRIADLSYTVTLEDYGLVKMREIFISDSSQGVSAVQQKPSSLPPAPCPSEIQTEPRETLEYKAALELEMWKEMQEDIFENQLKQKELAHMQALAEEWKKRDRERESLVKKKVAEYTILEGKLQKTLIDLEKREQQLASVESELQREKKELQSERQRNLQELQDSIRRAKEDCIHQVELERLKIKQLEEDKHRLQQQLNDAENKYKILEKEFQQFKDQQNNKPEIRLQSEINLLTLEKVELERKLESATKSKLHYKQQWGRALKELARLKQREQESQMARLKKQQEELEQMRLRYLAAEEKDTVKTERQELLDIRNELNRLRQQEQKQYQDSTEIASGKKDGPHGSVLEEGLDDYLTRLIEERDTLMRTGVYNHEDRIISELDRQIREILAKSNASN
As for B2, the “IMAP Y2H IMAP2 (number of IST)” value in assay [1] (HCV protein NS5A as bait) was determined as 1. The “Interaction with viral protein” value in assay [2] is reported as “NS5A”.

B3: PMVK (protein, UniProt Q15126 1-192, looked up)
Phosphomevalonate kinase: MAPLGGAPRLVLLFSGKRKSGKDFVTEALQSRLGADVCAVLRLSGPLKEQYAQEHGLNFQRLLDTSTYKEAFRKDMIRWGEEKRQADPGFFCRKIVEGISQPIWLVSDTRRVSDIQWFREAYGAVTQTVRVVALEQSRQQRGWVFTPGVDDAESECGLDNFGDFDWVIENHGVEQRLEEQLENLIEFIRSRL
Turning to B3, in assay [1] (HCV protein NS5A as bait), the “IMAP Y2H IMAP2 (number of IST)” value is given as 1. The “Interaction with viral protein” value in assay [2] is given as “NS5A”.

B4: LIMS2 (protein, UniProt Q7Z4I7 1-341, looked up)
LIM and senescent cell …: MTGSNMSDALANAVCQRCQARFSPAERIVNSNGELYHEHCFVCAQCFRPFPEGLFYEFEGRKYCEHDFQMLFAPCCGSCGEFIIGRVIKAMNNNWHPGCFRCELCDVELADLGFVKNAGRHLCRPCHNREKAKGLGKYICQRCHLVIDEQPLMFRSDAYHPDHFNCTHCGKELTAEARELKGELYCLPCHDKMGVPICGACRRPIEGRVVNALGKQWHVEHFVCAKCEKPFLGHRHYEKKGLAYCETHYNQLFGDVCYNCSHVIEGDVVSALNKAWCVSCFSCSTCNSKLTLKNKFVEFDMKPVCKRCYEKFPLELKKRLKKLSELTSRKAQPKATDLNSA
In the case of B4, the “IMAP Y2H IMAP2 (number of IST)” value in assay [1] (HCV protein NS5A as bait) was found to be 1. In addition, the “Interaction with viral protein” value in assay [2] is “NS5A”.

B5: OS9 (protein, UniProt Q13438 26-667, looked up)
Protein OS-9: GGVGSLNLEELSEMRYGIEILPLPVMGGQSQSSDVVIVSSKYKQRYECRLPAGAIHFQREREEETPAYQGPGIPELLSPMRDAPCLLKTKDWWTYEFCYGRHIQQYHMEDSEIKGEVLYLGYYQSAFDWDDETAKASKQHRLKRYHSQTYGNGSKCDLNGRPREAEVRFLCDEGAGISGDYIDRVDEPLSCSYVLTIRTPRLCPHPLLRPPPSAAPQAILCHPSLQPEEYMAYVQRQADSKQYGDKIIEELQDLGPQVWSETKSGVAPQKMAGASPTKDDSKDSDFWKMLNEPEDQAPGGEEVPAEEQDPSPEAADSASGAPNDFQNNVQVKVIRSPADLIRFIEELKGGTKKGKPNIGQEQPVDDAAEVPQREPEKERGDPERQREMEEEEDEDEDEDEDEDERQLLGEFEKELEGILLPSDRDRLRSEVKAGMERELENIIQETEKELDPDGLKKESERDRAMLALTSTLNKLIKRLEEKQSPELVKKHKKKRVVPKKPPPSPQPTEEDPEHRVRVRVTKLRLGGPNQDLTVLEMKRENPQLKQIEGLVKELLEREGLTAAGKIEIKIVRPWAEGTEEGARWLTDEDTRNLKEIFFNILVPGAEEAQKERQRQKELESNYRRVWGSPGGEGTGDLDEFDF
On to B5, for which the “IMAP Y2H IMAP2 (number of IST)” value in assay [1] (HCV protein NS5B as bait) is 3. The “Interaction with viral protein” value in assay [2] is reported as “NS5A”.

B6: IGLL1 (protein, UniProt P15814 38-213, looked up)
Immunoglobulin lambda-like …: LLRPTAASQSRALGPGAPGGSSRSSLRSRWGRFLLQRGSWTGPRCWPRGFQSKHNSVTHVFGSGTQLTVLSQPKATPSVTLFPPSSEELQANKATLVCLMNDFYPGILTVTWKADGTPITQGVEMTTPSKQSNNKYAASSYLSLTPEQWRSRRSYSCQVMHEGSTVEKTVAPAECS
As for B6, the “IMAP Y2H IMAP2 (number of IST)” value in assay [1] (HCV protein NS5A as bait) was determined as 1. Also, the “Interaction with viral protein” value in assay [2] was “NS5A”.

B7: SORBS3 (protein, UniProt O60504 1-671, looked up)
Vinexin: MQGPPRSLRAGLSLDDFIPGHLQSHIGSSSRGTRVPVIRNGGSNTLNFQFHDPAPRTVCNGGYTPRRDASQHPDPAWYQTWPGPGSKPSASTKIPASQHTQNWSATWTKDSKRRDKRWVKYEGIGPVDESGMPIAPRSSVDRPRDWYRRMFQQIHRKMPDLQLDWTFEEPPRDPRHLGAQQRPAHRPGPATSSSGRSWDHSEELPRSTFNYRPGAFSTVLQPSNQVLRRREKVDNVWTEESWNQFLQELETGQRPKKPLVDDPGEKPSQPIEVLLERELAELSAELDKDLRAIETRLPSPKSSPAPRRAPEQRPPAGPASAWSSSYPHAPYLGSARSLSPHKMADGGSPFLGRRDFVYPSSTRDPSASNGGGSPARREEKKRKAARLKFDFQAQSPKELTLQKGDIVYIHKEVDKNWLEGEHHGRLGIFPANYVEVLPADEIPKPIKPPTYQVLEYGEAVAQYTFKGDLEVELSFRKGEHICLIRKVNENWYEGRITGTGRQGIFPASYVQVSREPRLRLCDDGPQLPTSPRLTAAARSARHPSSPSALRSPADPIDLGGQTSPRRTGFSFPTQEPRPQTQNLGTPGPALSHSRGPSHPLDLGTSSPNTSQIHWTPYRAMYQYRPQNEDELELREGDRVDVMQQCDDGWFVGVSRRTQKFGTFPGNYVAPV
For B7, the “IMAP Y2H IMAP2 (number of IST)” value in assay [1] (HCV protein NS5A as bait) is listed as 1. The “Interaction with viral protein” value in assay [2] was “NS5A”.

B8: RRBP1 (protein, UniProt Q9P2E9 1-1410, looked up)
Ribosome-binding protein 1: MDIYDTQTLGVVVFGGFMVVSAIGIFLVSTFSMKETSYEEALANQRKEMAKTHHQKVEKKKKEKTVEKKGKTKKKEEKPNGKIPDHDPAPNVTVLLREPVRAPAVAVAPTPVQPPIIVAPVATVPAMPQEKLASSPKDKKKKEKKVAKVEPAVSSVVNSIQVLTSKAAILETAPKEVPMVVVPPVGAKGNTPATGTTQGKKAEGTQNQSKKAEGAPNQGRKAEGTPNQGKKTEGTPNQGKKAEGTPNQGKKAEGTPNQGKKAEGAQNQGKKVDTTPNQGKKVEGAPTQGRKAEGAQNQAKKVEGAQNQGKKAEGAQNQGKKGEGAQNQGKKAEGAQNQGKKAEGAQNQGKKAEGAQNQGKKAEGAQNQGKKAEGAQNQGKKAEGAQNQGKKVEGAQNQGKKAEGAQNQGKKAEGAQNQGKKAEGAQNQGKKAEGAQNQGKKAEGAQNQGKKAEGAQNQGKKAEGAQNQGKKVEGAQNQGKKAEGAQNQGKKAEGAQNQGKKAEGAQNQGQKGEGAQNQGKKTEGAQGKKAERSPNQGKKGEGAPIQGKKADSVANQGTKVEGITNQGKKAEGSPSEGKKAEGSPNQGKKADAAANQGKKTESASVQGRNTDVAQSPEAPKQEAPAKKKSGSKKKGEPGPPDADGPLYLPYKTLVSTVGSMVFNEGEAQRLIEILSEKAGIIQDTWHKATQKGDPVAILKRQLEEKEKLLATEQEDAAVAKSKLRELNKEMAAEKAKAAAGEAKVKKQLVAREQEITAVQARMQASYREHVKEVQQLQGKIRTLQEQLENGPNTQLARLQQENSILRDALNQATSQVESKQNAELAKLRQELSKVSKELVEKSEAVRQDEQQRKALEAKAAAFEKQVLQLQASHRESEEALQKRLDEVSRELCHTQSSHASLRADAEKAQEQQQQMAELHSKLQSSEAEVRSKCEELSGLHGQLQEARAENSQLTERIRSIEALLEAGQARDAQDVQASQAEADQQQTRLKELESQVSGLEKEAIELREAVEQQKVKNNDLREKNWKAMEALATAEQACKEKLLSLTQAKEESEKQLCLIEAQTMEALLALLPELSVLAQQNYTEWLQDLKEKGPTLLKHPPAPAEPSSDLASKLREAEETQSTLQAECDQYRSILAETEGMLRDLQKSVEEEEQVWRAKVGAAEEELQKSRVTVKHLEEIVEKLKGELESSDQVREHTSHLEAELEKHMAAASAECQNYAKEVAGLRQLLLESQSQLDAAKSEAQKQSDELALVRQQLSEMKSHVEDGDIAGAPASSPEAPPAEQDPVQLKTQLEWTEAILEDEQTQRQKLTAEFEEAQTSACRLQEELEKLRTAGPLESSETEEASQLKERLEKEKKLTSDLGRAATRLQELLKTTQEQLAREKDTVKKLQEQLEKAEDGSSSKEGTSV
For the molecule B8, the “IMAP Y2H IMAP2 (number of IST)” value in assay [1] (HCV protein NS5A as bait) worked out at 2. Also, the “Interaction with viral protein” value in assay [2] was “NS5A”.

B9: NFE2 (protein, UniProt Q16621 1-373, looked up)
Transcription factor NF-E2 45 …: MSPCPPQQSRNRVIQLSTSELGEMELTWQEIMSITELQGLNAPSEPSFEPQAPAPYLGPPPPTTYCPCSIHPDSGFPLPPPPYELPASTSHVPDPPYSYGNMAIPVSKPLSLSGLLSEPLQDPLALLDIGLPAGPPKPQEDPESDSGLSLNYSDAESLELEGTEAGRRRSEYVEMYPVEYPYSLMPNSLAHSNYTLPAAETPLALEPSSGPVRAKPTARGEAGSRDERRALAMKIPFPTDKIVNLPVDDFNELLARYPLTESQLALVRDIRRRGKNKVAAQNCRKRKLETIVQLERELERLTNERERLLRARGEADRTLEVMRQQLTELYRDIFQHLRDESGNSYSPEEYALQQAADGTIFLVPRGTKMEATD
For the molecule B9, in assay [1] (HCV protein NS5A as bait), the “IMAP Y2H IMAP2 (number of IST)” value is 1. The “Interaction with viral protein” value in assay [2] was “NS5A”.
